Measurements reported in the DeepSol protein solubility set.

Experiment: soluble on expression in E. coli; label from the status in PepcDB or PDB records

Soluble on expression in E. coli, not soluble:
MGSDKIHHHHHHMKKETKHFRALLADNALYYIYSNISAPLSLQELAKEAGVSAHHFHRIFKEEQGQNLYETIKSIRLQKAANLLLSNHYSTISEVAQLCGYSSSASFIKAFKGRFHLTPREWRHGGHRQYAKEILSTSSAAMASQRSFLGLEPTIKKIPAFRAVYLRHKGYNKSIALSWQKLMAWGFEHQISSQARQIGIHHDNPSITPLAECRYIAALEVEEGFRAQGLLGVMEFPPTLCAVFEVQGRYGDVLGLIDYVYHEWLPQSGYEAKTIPAFALYQKNHFLDPLGNFQLDFCLPVGVV, MGSDKIHHHHHHMKKIIIVSCLMSGVLNFGYSITTESIPTCSSFLSKLLSTAKSDTLSKVKLENCTFEEFKNNYDKDKFPVEFRNNQEEKSFYRHLKERDNYAGISNLYDMWKWVRFNRGFLEQQNEKLFHVYDKLNEVGINPESLDSMSYLNLKGINENINALTESINPSVEAIKYLLPDFEKYVAAYEKLAKEGDSLSYSDFKKASGRGATTANIQQIDQRILHQFRKEMHMNTANTAAMSSLNFGNGYGVSVGAAIGGHKGQYSLALGTAYTDYQTQVNVKIALPVKQPKPSNITYGVGFVYNFQ, MGSDKIHHHHHHMKKKIIHTLVYNYEIPVSLEEHLICLKPRSNSFQELSNFDLQIFPSPYSIFPLLSDNGDDIFKLLFTGSTNSLKIKTESDIETNIHPDLYQLKNDYDLSLPLKIESNDSLIGFIKGWFPNGQHDPAAIRIAQEALAGINNNVLDFLYHLIELIKDRVKYTPRHIGPAWTSGRTLSERVGSCRDLAILLMETCRCVGIPSRFVSGYQFMDQAPDKYELHAWTEVYIPGFGWRGFDPSGCGLINHNYVALASSSKSELVAPLRGSFVGPSNLKSELEWKIDIT, MGSDKIHHHHHHMKKKTTTVYVDKQYKLTRDVAPLSFMLPIKHSRRFPLLHFDESTGTNRELRYARNQKSPFVDKQDGNALLEPVIFEDGFLFVKKENQVLQQFLHYHPLNGTKFVEVDKSKDAAQVVDQLMIEADALVEAKKLSLEQLENVCRVLFNTNVDKLTTAEMKRDVLVFAKNNPQDFLDICSDPELKIMGMVQSFFDKGHLAYRKSKKEVWYNTPTNKTKMLNVPFGADGLDLVVSYLQSDEGIDVLKHLETL, MGSDKIHHHHHHMKKLDLDVLAMVVAVAESGSFAQGAQAVHRSPSAVSMQIKALEDALGKPLFIRDTRNVTATDDGRMLAEYGRRMLAMRDEAWASVVRPEIRGRVTIGVPDDYISSLLPQVLGKFAAMHPRVEVRVIGQPSSALVPMLKDNTVDLACLTRIKGVTGELIRMEPLVWVGSPKRNVWEERPLPVAFFTHGGSMARDHAVKALNRRKIPYRMSYESPSHLGLLSMVEAGLAVAPLARCCIPDHLVQLSESHGLPSLGELEVVLARSAKSARPPCDYLAEQILDEWRT, MGSDKIHHHHHHMKKLLLPLIIMLLVLAACGNQGEKNNKAETKSYKMDDGKTVDIPKDPKRIAVVAPTYAGGLKKLGANIVAVNQQVDQSKVLKDKFKGVTKIGDGDVEKVAKEKPDLIIVYSTDKDIKKYQKVAPTVVVDYNKHKYLEQQEMLGKIVGKEDKVKAWKKDWEETTAKDGKEIKKAIGQDATVSLFDEFDKKLYTYGDNWGRGGEVLYQAFGLKMQPEQQKLTAKAGWAEVKQEEIEKYAGDYIVSTSEGKPTPGYESTNMWKNLKATKEGHIVKVDAGTYWYNDPYTLDFMRKDLKEKLIKAAK, MGSDKIHHHHHHMKKQPSATVNQEKESELIEGLMSNDDLAYETLVRQYSAKMYAVARRFFCTNDDAQECLQKAFIQVFKNITSFKQNSNLSTWLHRITVNEALMMLRQRKRQNTTSLEEFAQHYNEYGERTVFADNLGNNLNNNLGTILGGNVETLFEKTETKLSLNDIIFQLPEKYCNVLLLRDIQEISTKETAEILAISESLVKTQLHRARLLLKAILEQDDKDNLESNWKVNSHVND, MGSDKIHHHHHHMKKSLIELLEARQKATDELAEVKLKKATIEAKMKSSTIEDDDLEQLKTDAESLVSQATAIKETIAGLDSDIEETEEELSKAAKIIKEKQKGNTPMDYLKTKAAALDFVRILMDNEGSANSARKAWEANLVEKGVTNLTKILPEPVLIAIQDAFTNYNGILNHVSKDPRYAVRVALQTQVSQAKGHKAGKTKKDEDFTFLDFTINSATVYIKYAFEYSDLKKDTTGAYFNYVMKELAQGFIRTIERAVVIGDGKSNSAEDKITEIKSIAEETEANLFETQEINVAGVFDNAVLETLVAGIDKMVPNTTPILVTSKAIARKLKLVKDAEGRYIDPQPFAPIATNGNVIAGFQVYIYDWMDGATNPIIAFADQAYKMIGDEAAADRFDDYDVTVNRRHIELASVMGGRLAQYKSAVKFTNPAG, MGSDKIHHHHHHMKKTIILSDENYYSQEADLAYMSVSQYKKFLECEAAALAKLKGEWTPENDPKALLVGNYVHSYFESPEIHEAFKEENKSKMFSSRKPFGLLKDFQIAEQMIERLKQEEAFLNIYQGEKEVIVTGEIGGAMWKGKIDCLNLEEKYFVDIKTTKDMHEKKWDERLNRKANFIERFGYVLQMAVYCELLRQQYDKIFLPLIAAVSKQTPSEAKLITLSEEKMIYELEELKENIEHVVRVKNGEEEPVSCGICEYCRGHNKITNFTSMDDL, MGSDKIHHHHHHMKKVVVGLSGGVDSSTAAAILHNQGYEVIGLTLWLMKGKGQCCSEGMIDAAYICEQLGIPHEVVDMRDVFQTHIVDYLVTGYGAGITPLPCSQCNKTVKFGPMVQYAREQLGCDRIATGHYARISYDEASGRYQLLRAVDRNKDQSYFLYDLSQDLLAASLFPLGEMEKADTRRIATEHGLKTADKPESQDLCLVESNGSMRAFLDKYIAPKKGDIVDTAGKILGQHDGVHHYTIGQRKGLGIAAPEPLYVVELDAVNNKVVVGDRTKATQEECTVSRVNWVSIPEPSTPIRAAVQIRYRSAPEPVTVIPLENSRVRLVFDEPQFSITPGQAAVWYDGDKVLGGGIIEQFSN, MGSDKIHHHHHHMKLGYCSITWGGVVGHPGGVTSVKDLFYLTHGSMKDAIHDIASVGYEGVEMFDGNLAEYADKPEVLKELLNSSGVSLTSVYTGANFIYADILPDELHRIHRSAELAANFGADRLVVGGGARRAAGTTDEDYHRLGRALDSVTDIAESFGLSASYHPHLTTIVESPDELDKLMPLTRIGFCPDTAHLAAGGADPAAVIRKYPDRIRHVHLKDFRQDPFTFLPLGQGELDFPDILAAIRESGYDSWLMVELDNYDGDPREAAELSMKYLEKLL, MGSDKIHHHHHHMKLLLTSGGIQNDSQRRALVDLLGKPIEEAHALCIPTAVYGMKEGPYHAYLFITGTGSTPMCELGFQSVGVLELTALPILDESLWVPLVEQADVLLVNGGDPLFLNYWMKKSGLADRLPSLKAVYVGLSAGSMVLTPRIGHAFVEWTAPHTTTDETLGLVEFSIFPHLDHELLPENTLDEAVKWAADLTGPSYAIDDQTAIQVVDGVVKVISEGHWKRFD, MGSDKIHHHHHHMKLLSVVKIWDRGDHNAFTDLIRFDGKLYCAFREGSAHVSPDGALRILVSEDDGSSWKEAALIKLDEGDLRDARLLVWLGELYLFGARAIAGEPLQSLMWRSSDGCRWQAAEHCADTGYWLWRVIADNNEQSVSRAPALYGVAYRPGPDGDVRLYRAAPQGPLKGTDFIPLVAALNSEGYVNETGLEITDGIFTCLLRRDPVWDDRRNGLLGKAKAPFMDWQWLELDCRIGGPVVFRWCNRLLAIVRLYDEKVRTSLVEICETTGHVAEHLSLPSGGDTSYAGVVMEHSVKGDELKVSYYSSHEGKTAIYFAAIRLE, MGSDKIHHHHHHMKLNHRQLEAFRAMIETGSVTEASKRIGVTQPAASRLISDLEYAIGYALFLREKKRLTPTPEAMALFEEVDRSYIGLGLIGDAARDIGANRRGALRIASLPAMALSFLPKVISKFCEDKPDISVDMQIHSSQRVIQCVASQQFDLGFAEIDSLHPAVKSQAFFESPMVAILPKHHPLCRKATLTPQDFSNENFIALGSNYTMRKRIDALFLANNITRKIQIETQLSMAVANLVASGAGVSIIEALTASSFRGLNLVEARPFLPEITYTYRVLSPAHRPISLLTASFINATRDALMKFDVSGHAL
